From publication PMC5577365 (Nature chemical biology, 2017)
Ends that are not written are not given here.

Legend:
[1] = biological target: wild-type Abl1 (ABL1 SH3 domain) (human, UniProt P00519 61-121); experiment: fluorescence polarisation
[2] = biological target: Abl1-Pmp52 (ABL1 SH3 domain with Pmp at position 52) (human, 4-phosphomethyl-L-phenylalanine (Pmp) at position 52); experiment: fluorescence polarisation

Chain of wild-type Abl1 (ABL1 SH3 domain) (P00519 whole entry, looked up, the tested form may be a part): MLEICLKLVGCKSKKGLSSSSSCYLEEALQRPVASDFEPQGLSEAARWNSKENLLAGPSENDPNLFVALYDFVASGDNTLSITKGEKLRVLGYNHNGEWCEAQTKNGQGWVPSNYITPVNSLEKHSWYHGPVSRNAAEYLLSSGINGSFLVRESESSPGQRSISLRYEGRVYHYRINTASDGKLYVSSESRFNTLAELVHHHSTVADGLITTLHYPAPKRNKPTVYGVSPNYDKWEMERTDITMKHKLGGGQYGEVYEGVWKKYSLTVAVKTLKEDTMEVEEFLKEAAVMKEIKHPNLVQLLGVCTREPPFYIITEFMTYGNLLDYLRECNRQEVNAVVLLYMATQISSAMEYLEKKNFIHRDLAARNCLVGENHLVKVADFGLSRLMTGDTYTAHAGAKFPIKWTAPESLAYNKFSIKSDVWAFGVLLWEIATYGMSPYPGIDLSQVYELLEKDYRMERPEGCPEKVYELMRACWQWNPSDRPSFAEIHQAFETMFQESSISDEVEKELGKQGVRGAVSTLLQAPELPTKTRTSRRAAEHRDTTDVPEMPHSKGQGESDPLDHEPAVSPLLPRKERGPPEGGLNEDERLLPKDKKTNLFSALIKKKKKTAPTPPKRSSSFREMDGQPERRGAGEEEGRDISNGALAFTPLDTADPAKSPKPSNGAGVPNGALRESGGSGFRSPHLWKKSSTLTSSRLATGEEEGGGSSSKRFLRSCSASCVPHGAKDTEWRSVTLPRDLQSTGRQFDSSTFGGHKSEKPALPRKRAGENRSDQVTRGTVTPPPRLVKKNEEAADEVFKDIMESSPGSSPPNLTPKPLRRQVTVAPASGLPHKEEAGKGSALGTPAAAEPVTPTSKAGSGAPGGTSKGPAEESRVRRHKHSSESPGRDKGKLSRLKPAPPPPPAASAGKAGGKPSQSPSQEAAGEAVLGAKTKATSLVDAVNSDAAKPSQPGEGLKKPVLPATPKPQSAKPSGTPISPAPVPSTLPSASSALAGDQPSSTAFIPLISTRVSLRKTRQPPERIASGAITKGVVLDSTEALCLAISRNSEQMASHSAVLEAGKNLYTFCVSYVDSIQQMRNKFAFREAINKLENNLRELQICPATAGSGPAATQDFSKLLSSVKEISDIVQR

## PPAYPPPPVP (also: FAM label, position not given here) [3BP2 peptide (FAM labeled)]
[1]
  Kd: 5 ± 0.8 µM
[2]
  Kd: 5 ± 0.8 µM
